Patent publication US9127040B2, “Regulation of sodium channels by PLUNC proteins” (The University of North Carolina at Chapel Hill, priority 2011, dated 2015)
Positions count from the first letter of the chain named. Numbers in names are those of the source.

Tests used:
αβγENaC = target: T1, αβγENaC (Rattus norvegicus, UniProt P37089+P37090+P37091); test: Amiloride-sensitive whole cell current, two electrode voltage clamp, Xenopus laevis oocytes expressing αβγENaC; type: cell-based; details: PLUNC family member co-expressed with α,β,γ ENaC
T1 construct: expressed in transfected cells; host or cells: Xenopus laevis oocytes (cRNA injection)
T1 sequence (P37089 1-698): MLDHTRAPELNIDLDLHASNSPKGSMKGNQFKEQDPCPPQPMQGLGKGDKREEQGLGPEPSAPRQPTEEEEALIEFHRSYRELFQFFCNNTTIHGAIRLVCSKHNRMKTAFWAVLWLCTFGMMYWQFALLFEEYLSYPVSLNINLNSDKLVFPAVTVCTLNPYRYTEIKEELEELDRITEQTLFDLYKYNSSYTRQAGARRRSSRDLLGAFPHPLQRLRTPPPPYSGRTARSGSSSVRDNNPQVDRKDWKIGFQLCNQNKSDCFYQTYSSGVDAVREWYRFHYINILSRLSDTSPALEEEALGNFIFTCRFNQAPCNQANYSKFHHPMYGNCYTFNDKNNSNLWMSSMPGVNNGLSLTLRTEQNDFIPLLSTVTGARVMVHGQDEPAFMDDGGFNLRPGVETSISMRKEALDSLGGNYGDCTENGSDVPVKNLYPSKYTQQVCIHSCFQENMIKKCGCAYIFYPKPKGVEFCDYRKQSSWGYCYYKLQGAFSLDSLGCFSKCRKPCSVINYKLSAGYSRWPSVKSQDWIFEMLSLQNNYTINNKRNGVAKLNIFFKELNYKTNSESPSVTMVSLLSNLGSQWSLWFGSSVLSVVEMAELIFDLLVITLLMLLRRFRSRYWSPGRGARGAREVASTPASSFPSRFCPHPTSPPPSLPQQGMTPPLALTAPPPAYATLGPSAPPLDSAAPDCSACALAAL
T1 sequence (P37090 1-638): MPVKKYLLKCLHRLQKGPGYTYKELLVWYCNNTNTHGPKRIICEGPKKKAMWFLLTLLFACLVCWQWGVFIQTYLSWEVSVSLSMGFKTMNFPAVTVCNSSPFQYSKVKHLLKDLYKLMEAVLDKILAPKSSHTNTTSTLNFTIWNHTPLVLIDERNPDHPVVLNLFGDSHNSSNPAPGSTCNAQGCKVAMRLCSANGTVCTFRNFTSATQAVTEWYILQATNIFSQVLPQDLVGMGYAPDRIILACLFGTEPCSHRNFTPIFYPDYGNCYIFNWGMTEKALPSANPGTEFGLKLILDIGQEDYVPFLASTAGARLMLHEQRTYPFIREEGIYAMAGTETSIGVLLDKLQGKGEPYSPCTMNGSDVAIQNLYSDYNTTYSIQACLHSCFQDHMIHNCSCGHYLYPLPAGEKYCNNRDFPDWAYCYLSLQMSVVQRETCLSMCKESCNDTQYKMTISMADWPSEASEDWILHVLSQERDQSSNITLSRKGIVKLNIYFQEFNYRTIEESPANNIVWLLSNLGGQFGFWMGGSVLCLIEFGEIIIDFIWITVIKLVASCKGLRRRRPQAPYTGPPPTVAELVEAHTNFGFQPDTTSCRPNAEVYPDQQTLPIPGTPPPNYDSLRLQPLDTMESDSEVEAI
T1 sequence (P37091 1-650): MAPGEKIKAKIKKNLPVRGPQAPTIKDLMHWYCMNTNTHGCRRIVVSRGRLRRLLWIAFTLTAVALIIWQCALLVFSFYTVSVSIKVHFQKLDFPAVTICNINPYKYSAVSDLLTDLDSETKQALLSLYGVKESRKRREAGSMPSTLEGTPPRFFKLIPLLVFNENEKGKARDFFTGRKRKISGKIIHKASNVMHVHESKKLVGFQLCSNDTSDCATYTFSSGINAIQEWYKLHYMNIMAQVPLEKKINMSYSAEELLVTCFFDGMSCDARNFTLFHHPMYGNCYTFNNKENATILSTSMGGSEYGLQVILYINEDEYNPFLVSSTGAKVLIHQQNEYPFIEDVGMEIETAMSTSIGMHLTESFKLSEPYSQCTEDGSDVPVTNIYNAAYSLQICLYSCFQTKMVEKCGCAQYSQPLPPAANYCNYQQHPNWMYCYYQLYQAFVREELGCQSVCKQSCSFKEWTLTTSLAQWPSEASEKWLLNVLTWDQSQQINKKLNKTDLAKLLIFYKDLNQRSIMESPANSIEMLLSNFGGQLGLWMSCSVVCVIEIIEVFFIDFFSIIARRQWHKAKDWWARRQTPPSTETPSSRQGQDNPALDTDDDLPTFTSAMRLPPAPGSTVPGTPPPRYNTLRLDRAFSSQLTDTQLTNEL
Procedure: Xenopus laevis oocytes were harvested and injected as described (Donaldson, et al., J. Biol. Chem. 277:8338 (2002)). Defolliculated healthy stage V-VI oocytes were injected with 0.3 ng of CRNA of each ENaC subunit. Injected oocytes were kept in modified Barth's saline (in mM: 88 NaCl, 1 KCl, 2.4 NaHCO3, 0.3 Ca(NO3)2, 0.41 CaCl2, 0.82 MgSO4, and 15 HEPES, adjusted to pH 7.35 with Tris). Oocytes were studied 24 hr after injection using the two electrode voltage clamp technique as previously described (Donaldson, et al., J. Biol. Chem. 277:8338 (2002)). Oocytes were clamped at a holding potential of −60 mV. The change in amiloride-sensitive whole cell current as an indicator of ENaC activity was determined by subtracting the corresponding current value measured in the presence of 10 μM amiloride from that measured before the application of amiloride. Where appropriate, oocytes were incubated with G22-A39 or ABC for 1 h prior to recording. In some experiments β-ENaC^S518C was used which forms ENaCs that are locked into an open probability near 1.0 by exposure to the sulthydral reactive reagent [2-(Trimethyl-ammonium)ethyl]methanethiosulphonate bromide (MTSET). MTSET was added at a concentration of 1 mM to the oocyte bath as previously described (Snyder, J. Clin. Invest. 105: 45 (2000)).

ENaC = target: T2, ENaC (Homo sapiens, UniProt P37088+P51168+P51170); test: Transepithelial voltage (PD), thin film conditions, human bronchial epithelial cultures; type: cell-based; details: 50 ng/ml, PD remeasured 45 min later, prewashed cultures
T2 construct: measured the transepithelial voltage under thin film conditions in human bronchial epithelial cultures; endogenous in cells; host or cells: primary human bronchial epithelial cultures (normal or CF donors)
T2 sequence (P37088 1-669): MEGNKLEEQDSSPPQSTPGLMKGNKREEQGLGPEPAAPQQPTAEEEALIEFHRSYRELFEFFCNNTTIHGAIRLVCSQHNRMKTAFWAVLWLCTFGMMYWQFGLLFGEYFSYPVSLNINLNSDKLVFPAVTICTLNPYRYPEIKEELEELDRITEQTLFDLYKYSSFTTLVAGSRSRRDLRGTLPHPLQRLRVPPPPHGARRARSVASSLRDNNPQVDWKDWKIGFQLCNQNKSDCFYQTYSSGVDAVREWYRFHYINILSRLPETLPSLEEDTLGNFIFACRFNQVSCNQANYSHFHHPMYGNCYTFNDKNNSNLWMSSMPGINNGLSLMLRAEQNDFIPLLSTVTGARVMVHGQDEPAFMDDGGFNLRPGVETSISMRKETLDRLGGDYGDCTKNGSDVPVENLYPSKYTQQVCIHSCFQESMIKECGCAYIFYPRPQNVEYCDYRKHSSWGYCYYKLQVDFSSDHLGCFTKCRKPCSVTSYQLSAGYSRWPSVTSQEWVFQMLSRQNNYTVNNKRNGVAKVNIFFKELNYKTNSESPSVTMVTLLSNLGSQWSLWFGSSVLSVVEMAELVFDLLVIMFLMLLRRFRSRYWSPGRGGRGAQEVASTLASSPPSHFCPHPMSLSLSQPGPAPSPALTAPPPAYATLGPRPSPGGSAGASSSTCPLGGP
T2 sequence (P51168 1-640): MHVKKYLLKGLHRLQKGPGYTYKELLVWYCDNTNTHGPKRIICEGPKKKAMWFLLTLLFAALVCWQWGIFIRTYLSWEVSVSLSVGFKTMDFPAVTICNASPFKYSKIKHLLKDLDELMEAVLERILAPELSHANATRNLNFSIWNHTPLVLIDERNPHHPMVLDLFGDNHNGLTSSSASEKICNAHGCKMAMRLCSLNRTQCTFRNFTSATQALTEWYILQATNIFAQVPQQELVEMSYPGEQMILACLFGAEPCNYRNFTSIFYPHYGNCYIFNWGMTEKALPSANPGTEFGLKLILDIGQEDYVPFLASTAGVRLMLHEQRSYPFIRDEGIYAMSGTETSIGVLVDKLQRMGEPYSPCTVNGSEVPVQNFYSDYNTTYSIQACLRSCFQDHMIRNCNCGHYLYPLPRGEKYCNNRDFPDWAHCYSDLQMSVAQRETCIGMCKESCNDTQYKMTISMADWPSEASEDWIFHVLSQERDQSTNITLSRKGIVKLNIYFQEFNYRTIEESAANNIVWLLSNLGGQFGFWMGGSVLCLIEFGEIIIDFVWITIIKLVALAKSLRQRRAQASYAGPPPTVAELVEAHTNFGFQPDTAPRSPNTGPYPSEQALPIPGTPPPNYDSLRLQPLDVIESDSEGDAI
T2 sequence (P51170 1-649): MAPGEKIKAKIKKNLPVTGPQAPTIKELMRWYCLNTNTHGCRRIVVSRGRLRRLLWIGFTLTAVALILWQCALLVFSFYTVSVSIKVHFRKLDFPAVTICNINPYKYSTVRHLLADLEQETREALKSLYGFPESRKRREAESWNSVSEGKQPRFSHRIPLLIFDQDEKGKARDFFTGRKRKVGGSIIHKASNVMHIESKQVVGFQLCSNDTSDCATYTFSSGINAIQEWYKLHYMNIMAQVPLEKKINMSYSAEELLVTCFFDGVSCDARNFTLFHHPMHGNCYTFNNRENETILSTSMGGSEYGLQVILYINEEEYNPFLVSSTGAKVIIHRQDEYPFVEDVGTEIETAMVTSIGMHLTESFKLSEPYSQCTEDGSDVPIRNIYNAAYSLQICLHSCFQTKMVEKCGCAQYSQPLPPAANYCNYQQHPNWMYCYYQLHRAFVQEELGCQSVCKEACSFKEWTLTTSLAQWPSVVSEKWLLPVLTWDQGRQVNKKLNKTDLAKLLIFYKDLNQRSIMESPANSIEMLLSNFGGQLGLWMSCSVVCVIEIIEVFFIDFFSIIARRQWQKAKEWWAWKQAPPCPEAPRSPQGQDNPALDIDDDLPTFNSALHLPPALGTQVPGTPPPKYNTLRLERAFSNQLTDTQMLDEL
Excerpt: Tissue procurement and cell culture: Cells were harvested by enzymatic digestion from human bronchial tissue as previously described under a protocol approved by the UNC School of Medicine IRB (Tarran et al., J. Gen. Physiol. 127:591 (2006)). Human excess donor lungs and excised recipient lungs were obtained at the time of lung transplantation from portions of main stem or […] bronchi and cells were harvested by enzymatic digestion. All preparations were maintained at an air-liquid interface in a modified bronchial epithelial medium and used 2-5 weeks after seeding on 12 mm T-Clear inserts (Corning Costar) coated with human placental type VI collagen (Sigma). Phosphate buffered saline (PBS) was used for washing human bronchial epithelial culture mucosal surfaces. HBECs were maintained at an air-liquid interface in a modified bronchial epithelial growth medium (BEGM) with 5% CO2 at 37° C. and used 2-5 weeks after seeding on 12-mm T-clear inserts (Corning-Costar, Corning, N.Y., USA) (Randell, Methods Mol. Biol. 742:285 (2011)).
A single-barreled potential difference-sensing electrode was placed in the airway surface liquid by micromanipulator and used in conjunction with a macroelectrode in the serosal solution to measure transepithelial voltage using a voltmeter (World Precision Instruments). […] Transepithelial resistance was routinely measured using the EVOM system (WPI) as previously described (Tarran et al., J. Gen. Physiol. 127:591 (2006)).

CF HBECs = details: 30 μM, ASL height over 24 h

B1: SPLUNC2: human SPLUNC2 (SEQ ID NO:2), short PLUNC family protein co-expressed in oocytes (protein, listed as Homo sapiens)
chain: MLQLWKLVLLCGVLTGTSESLLDNLGNDLSNVVDKLEPVLHEGLETVDNTLKGILEKLKVDLGVLQKSSAWQLAKQKAQEAEKLLNNVISKLLPTNTDIFGLKISNSLILDVKAEPIDDGKGLNLSFPVTANVTVAGPIIGQIINLKASLDLLTAVTIETDPQTHQPVAVLGECASDPTSISLSLLDKHSQIINKFVNSVINTLKSTVSSLLQKEICPLIRIFIHSLDVNVIQQVVDNPQHKTQLQTLI
amiloride-sensitive ENaC current relative to control, co-expression (αβγENaC): borderline significance

B2: recombinant SPLUNC1 that had been reduced with DTT: recombinant SPLUNC1 pretreated (reduced) with DTT (protein, UniProt Q9NP55 20-256, looked up)
BPI fold-containing family A …: QFGGLPVPLDQTLPLNVNPALPLSPTGLAGSLTNALSNGLLSGGLLGILENLPLLDILKPGGGTSGGLLGGLLGKVTSVIPGLNNIIDIKVTDPQLLELGLVQSPDGHRLYVTIPLGIKLQVNTPLVGASLLRLAVKLDITAEILAVRDKQERIHLVLGDCTHSPGSLQISLLDGLGPLPIQGLLDSLTGILNKVLPELVQGNVCPLVNEVLRGLDITLVHDIVNMLIHGLQFVIKV
modifications: DTT-reduced
inhibition of transepithelial PD after DTT reduction (ENaC): abolished SPLUNC1 activity

B3: mutant SPLUNC1: SPLUNC1 with hinge domain mutated to alanines: K94A, N103A, N104A, K138A, Q140A, N142A, D193A (protein, UniProt Q9NP55 20-256, looked up, variant K94A N103A N104A K138A Q140A N142A D193A)
BPI fold-containing family A …: B2 BPI fold-containing family A … with K75A, N84A, N85A, K119A, Q121A, N123A, D174A
ASL absorption in CF cultures (CF HBECs): significantly inhibited ASL absorption
